Laboratory results from patent US7038112B2, “Fatty acid elongases” (Miami University, priority 1997, dated 2006).
Like-named read-outs stand apart in the source and are kept apart here.

How the values were obtained:
[1] = assay type: biochemical, Saccharomyces cerevisiae; details: for (%) 20:1 acyl CoA / (%) 22:1 acyl CoA / (%) 24:1 acyl CoA / (%) 26:1 acyl CoA / (%) Total / Rate, 20:1 acyl CoA / Rate, 22:1 acyl CoA / Rate, 24:1 acyl CoA / Rate, 26:1 acyl CoA / Rate, Total: second experiment
Procedure: (§1) Transformed yeast cells were grown in the presence of either glucose or galactose (2% w/v) as described in Example 1. Cells were harvested by centrifugation at 5000×g for 10 min and washed with 10 ml ice cold isolation buffer (IB), which contains 80 mM Hepes-KOH, pH 7.2, 5 mM EGTA, 5 mM EDTA, 10 mM KC1, 320 mM sucrose and 2 mM DTT). Cells were then resuspended in enough IB to fill a 1.7 ml tube containing 700 μl of 0.5 μm glass beads and yeast microsomes were isolated from the cells essentially as described in Tillman, T. and Bell, R., J. Biol. Chem. 261:9144–9149 (1986). The microsomal membrane pellet was recovered by centrifugation at 252,000×g for 60 min. The pellet was rinsed by resuspending in 40 ml fresh IB and again recovered by centrifugation at 252000×g for 60 min. Microsomal pellets were resuspended in a minimal volume of IB, and the protein concentration adjusted to 2.5 μg μl^−1 by addition of IB containing 15% glycerol. Microsomes were frozen on dry ice and stored at −80° C. The protein concentration in microsomes was determined by the Bradford method (Bradford, 1976).
(§2) Fatty acid elongase activity was measured essentially as described in Hlousek-Radojcic, A. et al., Plant J. 8:803–809 (1995). Briefly, the standard elongation reaction mix contained 80 mM Hepes-KOH, pH 7.2, 20 mM MgCl2, 500 μM NADPH, 1 mM ATP, 100 μM malonyl-CoA, 10 μM CoA-SH and 15 μM radioactive acyl-CoA substrate. The radiolabeled substrate was either [1^−14C]18:1-CoA (50 uCi μmol^−1), [1^−14C]18:0-CoA (55 uCi μmol^−1), or [1^−14C]16:0-CoA (54 uCi μmol^−1). The reaction was initiated by the addition of yeast microsomes (5 μg protein) and the mixture incubated at 30° C. for the indicated period of time. The final reaction volume was 25 μl.
(§3) Methyl esters of the acyl-CoA elongation products were prepared as described in Example 1. Methyl esters were separated on reversed phase silica gel KC18 TLC plates (Whatman, […] thick), quantified by phosphorimaging, and analyzed on by ImageQuant software (Molecular Dynamics, Inc., Sunnyvale, Calif.). The detection limit for each product is about 0.001 nanomoles per min. per mg microsomal protein, depending on the phosphorimage exposure time.
(§4) Yeast cultures containing full-length EL1 in λYES and full-length EL2 in pYEUra3 were grown in the presence of galactose or glucose as described in Example 2. Microsomes were then prepared from each of the cultures and fatty acid elongation assays were carried out as described in Example 2.
(§5) In the first experiment, microsomes were prepared from galactose-induced cultures of EL1, EL2 and FAE1, and incubated with either [1-^14C] 18:0 acyl-CoA or [1-^14C] 18:1 acyl-CoA as substrate. The amounts of various reaction products synthesized after 30 minutes (min) were determined as described in Example 2.
(§6) In a second experiment, microsomes were prepared from galactose-induced and from glucose-repressed yeast cultures containing EL1 or EL2 coding sequences. The microsomal preparations were incubated with either 18:0 acyl-CoA or 18:1 acyl-CoA as substrate and the fatty acid reaction products determined as described above.

[2] = In vitro fatty acid elongation assay with yeast microsomes, 18:0 acyl-CoA substrate; assay type: biochemical, Saccharomyces cerevisiae; details: for (%) 20:0 acyl CoA / (%) 22:0 acyl CoA / (%) 24:0 acyl CoA / (%) 26:0 acyl CoA / (%) Total / Rate, 20:0 acyl CoA / Rate, 22:0 acyl CoA / Rate, 24:0 acyl CoA / Rate, 26:0 acyl CoA / Rate, Total: second experiment
Procedure: as §1, §2, §3, §4, §5
as §6, with “above. […]” for “above.”

[3] = 18:1-CoA substrate, +Galactose (induced)
[4] = 18:1-CoA substrate, +Glucose (uninduced)
[5] = 18:1-CoA substrate, galactose-induced, 30 min, first experiment
[6] = 18:0-CoA substrate, +Galactose (induced)
[7] = 18:0-CoA substrate, +Glucose (uninduced)
[8] = 18:0-CoA substrate, galactose-induced, 30 min, first experiment
[9] = +Gal, standard reaction mix, average of two experiments
[10] = +Glu, standard reaction mix, one experiment
[11] = galactose-induced, −A&C (ATP and Coenzyme A omitted), average of two experiments
[12] = galactose-induced, −ATP, average of two experiments
[13] = galactose-induced, −CoA, average of two experiments

B1: EL2: Arabidopsis β-keto acyl synthase gene product (SEQ ID NO:4) expressed in yeast microsomes (protein, listed as Arabidopsis thaliana)
chain: MDYPMKKVKIFFNYLMAHRFKLCFLPLMVAIAVEASRLSTQDLQNFYLYLQNNHTSLTMFFLYLALGSTLYLMTRPKPVYLVDFSCYLPPSHLKASTQRIMQHVRLVREAGAWKQESDYLMDFCEKILERSGLGQETYVPEGLQTLPLQQNLAVSRIETEEVIIGAVDNLFRNTGISPSDIGILVVNSSTFNPTPSLSSILVNKFKLRDNIKSLNLGGMGCSAGVIAIDAAKSLLQVHRNTYALVVSTENITQNLYMGNNKSMLVTNCLFRIGGAAILLSNRSIDRKRAKYELVHTVRVHTGADDRSYECATQEEDEDGIVGVSLSKNLPMVAARTLKINIATLGPLVLPISEKFHFFVRFVKKKFLNPKLKHYIPDFKLAFEHFCIHAGGRALIDEMEKNLHLTPLDVEASRMTLHRFGNTSSSSIWYELAYTEAKGRMTKGDRIWQIALGSGFKCNSSVWVALRNVKPSTNNPWEQCLHKYPVEIDIDLKE
increase in 18:1 CoA elongation, microsomes from induced vs uninduced cells [1]: ~2 fold | (%) 20:1 acyl CoA [1, 3]: 100.0% | (%) 22:1 acyl CoA [1, 3]: 0.0% | (%) 24:1 acyl CoA [1, 3]: 0.0% | (%) 26:1 acyl CoA [1, 3]: 0.0% | (%) Total [1, 3]: 100.0% | Rate, 20:1 acyl CoA [1, 3]: 0.089 Nanomoles/minute/mg of microsomal protein | Rate, 22:1 acyl CoA [1, 3]: 0.000 Nanomoles/minute/mg of microsomal protein | Rate, 24:1 acyl CoA [1, 3]: 0.000 Nanomoles/minute/mg of microsomal protein | Rate, 26:1 acyl CoA [1, 3]: 0.000 Nanomoles/minute/mg of microsomal protein | Rate, Total [1, 3]: 0.089 Nanomoles/minute/mg of microsomal protein | (%) 20:1 acyl CoA [1, 4]: 100.0% | (%) 22:1 acyl CoA [1, 4]: 0.0% | (%) 24:1 acyl CoA [1, 4]: 0.0% | (%) 26:1 acyl CoA [1, 4]: 0.0% | (%) Total [1, 4]: 100.0% | Rate, 20:1 acyl CoA [1, 4]: 0.043 Nanomoles/minute/mg of microsomal protein | Rate, 22:1 acyl CoA [1, 4]: 0.000 Nanomoles/minute/mg of microsomal protein | Rate, 24:1 acyl CoA [1, 4]: 0.000 Nanomoles/minute/mg of microsomal protein | Rate, 26:1 acyl CoA [1, 4]: 0.000 Nanomoles/minute/mg of microsomal protein | Rate, Total [1, 4]: 0.043 Nanomoles/minute/mg of microsomal protein | (%) 20:1 acyl-CoA product [1, 5]: 84.1% | (%) 22:1 acyl-CoA product [1, 5]: 15.9% | (%) 24:1 acyl-CoA product [1, 5]: 0.0% | (%) 26:1 acyl-CoA product [1, 5]: 0.0% | (%) Total acyl-CoA products [1, 5]: 100.0% | Rate, 20:1 acyl-CoA product [1, 5]: 0.091 Nanomoles/minute/mg of microsomal protein | Rate, 22:1 acyl-CoA product [1, 5]: 0.017 Nanomoles/minute/mg of microsomal protein | Rate, 24:1 acyl-CoA product [1, 5]: 0.0 Nanomoles/minute/mg of microsomal protein | Rate, 26:1 acyl-CoA product [1, 5]: 0.0 Nanomoles/minute/mg of microsomal protein | Rate, Total acyl-CoA products [1, 5]: 0.108 Nanomoles/minute/mg of microsomal protein | (%) 20:0 acyl CoA [2, 6]: 43.1% | (%) 22:0 acyl CoA [2, 6]: 17.8% | (%) 24:0 acyl CoA [2, 6]: 19.1% | (%) 26:0 acyl CoA [2, 6]: 20.0% | (%) Total [2, 6]: 100.0% | Rate, 20:0 acyl CoA [2, 6]: 0.107 Nanomoles/minute/mg of microsomal protein | Rate, 22:0 acyl CoA [2, 6]: 0.044 Nanomoles/minute/mg of microsomal protein | Rate, 24:0 acyl CoA [2, 6]: 0.048 Nanomoles/minute/mg of microsomal protein | Rate, 26:0 acyl CoA [2, 6]: 0.050 Nanomoles/minute/mg of microsomal protein | Rate, Total [2, 6]: 0.249 Nanomoles/minute/mg of microsomal protein | (%) 20:0 acyl CoA [2, 7]: 81.3% | (%) 22:0 acyl CoA [2, 7]: 5.1% | (%) 24:0 acyl CoA [2, 7]: 13.6% | (%) 26:0 acyl CoA [2, 7]: 0.0% | (%) Total [2, 7]: 100.0% | Rate, 20:0 acyl CoA [2, 7]: 0.030 Nanomoles/minute/mg of microsomal protein | Rate, 22:0 acyl CoA [2, 7]: 0.002 Nanomoles/minute/mg of microsomal protein | Rate, 24:0 acyl CoA [2, 7]: 0.005 Nanomoles/minute/mg of microsomal protein | Rate, 26:0 acyl CoA [2, 7]: 0.000 Nanomoles/minute/mg of microsomal protein | Rate, Total [2, 7]: 0.037 Nanomoles/minute/mg of microsomal protein | effect of omission of ATP and/or CoA on overall amounts of VLCFAs synthesized ([2]; 18:0-CoA substrate, galactose-induced): does not have a significant effect | (%) 20:0 acyl-CoA product [2, 8]: 41.8% | (%) 22:0 acyl-CoA product [2, 8]: 20.7% | (%) 24:0 acyl-CoA product [2, 8]: 20.3% | (%) 26:0 acyl-CoA product [2, 8]: 17.2% | (%) Total acyl-CoA products [2, 8]: 100.0% | Rate, 20:0 acyl-CoA product [2, 8]: 0.108 Nanomoles/minute/mg of microsomal protein | Rate, 22:0 acyl-CoA product [2, 8]: 0.053 Nanomoles/minute/mg of microsomal protein | Rate, 24:0 acyl-CoA product [2, 8]: 0.052 Nanomoles/minute/mg of microsomal protein | Rate, 26:0 acyl-CoA product [2, 8]: 0.044 Nanomoles/minute/mg of microsomal protein | Rate, Total acyl-CoA products [2, 8]: 0.258 Nanomoles/minute/mg of microsomal protein | 20:0 product as a percent of total products formed [2, 9]: 47.1% | 22:0 product as a percent of total products formed [2, 9]: 19.1% | 24:0 product as a percent of total products formed [2, 9]: 19.4% | 26:0 product as a percent of total products formed [2, 9]: 14.5% | Total products as a percent of total products formed [2, 9]: 100.0% | 20:0 product as a percent of total products formed [2, 10]: 54.5% | 22:0 product as a percent of total products formed [2, 10]: 17.1% | 24:0 product as a percent of total products formed [2, 10]: 5.8% | 26:0 product as a percent of total products formed [2, 10]: 22.6% | Total products as a percent of total products formed [2, 10]: 100.0% | increase in overall elongase activity on induction with galactose, 18:0 acyl CoA substrate ([2]; galactose-induced vs glucose): ~7 fold | 20:0 product as a percent of total products formed [2, 11]: 38.0% | 22:0 product as a percent of total products formed [2, 11]: 15.9% | 24:0 product as a percent of total products formed [2, 11]: 18.4% | 26:0 product as a percent of total products formed [2, 11]: 27.8% | Total products as a percent of total products formed [2, 11]: 100.0% | 20:0 product as a percent of total products formed [2, 12]: 34.1% | 22:0 product as a percent of total products formed [2, 12]: 16.4% | 24:0 product as a percent of total products formed [2, 12]: 20.8% | 26:0 product as a percent of total products formed [2, 12]: 28.9% | Total products as a percent of total products formed [2, 12]: 100.0% | 20:0 product as a percent of total products formed [2, 13]: 45.3% | 22:0 product as a percent of total products formed [2, 13]: 19.2% | 24:0 product as a percent of total products formed [2, 13]: 19.9% | 26:0 product as a percent of total products formed [2, 13]: 15.8% | Total products as a percent of total products formed [2, 13]: 100.0% | 18:0-CoA elongation activity, +Glu ([2]; microsomes from glucose-grown cultures, standard reaction mix): .033 nanomoles/minute/mg of microsomal protein
